± gives the uncertainty stated by the source.
Test: self-splicing fitness, log relative to wild type (ln ratio); higher = more splicing; Tetrahymena group I intron in knt gene, E. coli kanamycin selection, DiMSum; sequences stand for … in CUCUCU…GGAGGGAAAAGUUAUCAGGCAUGCACCUGGUAGCUAGUCUUUAAACCAAUAGAUUGCAUCGGUUUAAAAGGCAAGACCGUCAAAUUGCGGGAAAGGGGUCAACAGCCGUUCAGUACCAAGUCUCAGGGGAAACUUUGAGAUGGCCUUGCAAAGGGUAUGGUAAUAAGCUGACGGACAUGGUCCUAACCACGCAGCCAAGUCCUAAGUCAACAGAUCUUCUGUUGAUAUGGAUGCAGUUCACAGACUAAAUGUCGGUCGGGGAAGAUGUAUUCUUCUCAUAAGAUAUAGUCGGACCUCUCCUUAAUGGGAGCUAGCGGAUGAAGUGAUGCAACACUGGAGCCGCUGGGAACUAAUUUGUAUGCGAAAGUAUAUUGAUUAGUUUUGGAGUACUCGUGGUCG
Method in brief: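 Fitness was computed with DiMSum as the error-weighted combination of replicate fold changes, kanamycin versus none, each normalised to wild type. The library randomised all eight intron nucleotides of the P1ex region, with the intron placed in the knt kanamycin-resistance gene on pET-22b(+) in E. coli BL21(DE3). Six replicate transformations were grown overnight at 37°C or 30°C on LB agar with or without 25 μg/mL kanamycin, plus 100 μg/mL carbenicillin, 50 μM IPTG and 0.2% rhamnose. Pooled colonies were amplicon-sequenced on an Illumina HiSeq 2500.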

Sequence | self-splicing fitness (ln) (30 °C) | self-splicing fitness (ln) (37 °C)
AUCUAGCAAUAUUACGCAUC | -4.16 ± 0.47 | -2.81 ± 0.4
AUCUAGCAAUAUUACGCCGU | -0.173 ± 0.089 | -0.324 ± 0.1
AUCUAGCAAUAUUACGCCUA | -1.09 ± 0.16 | -0.389 ± 0.16
AUCUAGCAAUAUUACGCGAG | -1.92 ± 0.14 | -0.183 ± 0.1
AUCUAGCAAUAUUACGGCGG | -1.12 ± 0.083 | -1.15 ± 0.1
AUCUAGCAAUAUUACGGGCA | -1.25 ± 0.15 | -0.862 ± 0.18
AUCUAGCAAUAUUACGGGGA | -1.48 ± 0.073 | -1.03 ± 0.087
AUCUAGCAAUAUUACGGUAA | -0.976 ± 0.12 | -0.736 ± 0.14
AUCUAGCAAUAUUACGUAGA | -2.39 ± 0.12 | -0.832 ± 0.11
AUCUAGCAAUAUUACGUCAA | -2.6 ± 0.29 | -1.68 ± 0.21
AUCUAGCAAUAUUACGUCAC | -4.04 ± 0.26 | -2.11 ± 0.2
AUCUAGCAAUAUUACGUUGG | -3.4 ± 0.19 | -1.88 ± 0.19
AUGAAGCAAUAUUACGAACC | 0.0578 ± 0.14 | 0.124 ± 0.17
AUGAAGCAAUAUUACGACCC | -1.6 ± 0.22 | 
AUGAAGCAAUAUUACGAUGA | -0.515 ± 0.07 | 0.274 ± 0.089
AUGAAGCAAUAUUACGAUUA | -0.416 ± 0.082 | 0.189 ± 0.12
AUGAAGCAAUAUUACGAUUC | -2.23 ± 0.1 | -1.33 ± 0.14
AUGAAGCAAUAUUACGCAGA | -1.63 ± 0.12 | -0.868 ± 0.1
AUGAAGCAAUAUUACGCGCC | -0.426 ± 0.085 | -0.127 ± 0.11
AUGAAGCAAUAUUACGCGUC | -4.16 ± 0.2 | -1.48 ± 0.13
AUGAAGCAAUAUUACGCUUA | -0.65 ± 0.061 | -0.151 ± 0.075
AUGAAGCAAUAUUACGGACA | -0.277 ± 0.077 | 0.5 ± 0.11
AUGAAGCAAUAUUACGGGGA | -2.4 ± 0.15 | -1.31 ± 0.17
AUGAAGCAAUAUUACGGUGC | -2.3 ± 0.15 | -1.99 ± 0.19
AUGAAGCAAUAUUACGUAGC | -4.32 ± 0.42 | -1.45 ± 0.27

Sequence | self-splicing fitness (ln) (30 °C) | self-splicing fitness (ln) (37 °C)
AUGAAGCAAUAUUACGUGUU | -1.64 ± 0.063 | -1.64 ± 0.078
AUGCAGCAAUAUUACGACAU | -0.23 ± 0.012 | 0.215 ± 0.032
AUGCAGCAAUAUUACGACGU | -0.0321 ± 0.072 | 0.706 ± 0.083
AUGCAGCAAUAUUACGAGGA | -3.57 ± 0.28 | -2.9 ± 0.21
AUGCAGCAAUAUUACGAGUG | -2.88 ± 0.11 | -1.64 ± 0.11
AUGCAGCAAUAUUACGCAAG | -1.92 ± 0.091 | -1.72 ± 0.096
AUGCAGCAAUAUUACGCAUA |  | -2.06 ± 0.38
AUGCAGCAAUAUUACGCAUC |  | -2.67 ± 0.28
AUGCAGCAAUAUUACGCCCA | -1.11 ± 0.12 | 0.0949 ± 0.14
AUGCAGCAAUAUUACGCUCU | -1.34 ± 0.084 | 0.22 ± 0.084
AUGCAGCAAUAUUACGCUUG | -3.06 ± 0.12 | -2.85 ± 0.18
AUGCAGCAAUAUUACGCUUU | -2.72 ± 0.11 | -1.75 ± 0.11
AUGCAGCAAUAUUACGGAAA | -1.86 ± 0.23 | -2.17 ± 0.28
AUGCAGCAAUAUUACGGUAU | -4.16 ± 0.27 | -1.42 ± 0.14
AUGCAGCAAUAUUACGGUCA | -1.2 ± 0.14 | -1.08 ± 0.14
AUGCAGCAAUAUUACGUAGG | -1.72 ± 0.082 | -1.16 ± 0.11
AUGCAGCAAUAUUACGUCGU | -0.894 ± 0.11 | -1.66 ± 0.13
AUGCAGCAAUAUUACGUCUA | -0.692 ± 0.12 | 0.148 ± 0.1
AUGCAGCAAUAUUACGUUUG | -3.45 ± 0.17 | -1.82 ± 0.17
AUGGAGCAAUAUUACGACAC | -1.26 ± 0.32 | -1.08 ± 0.26
AUGGAGCAAUAUUACGACCU | -0.472 ± 0.14 | 0.103 ± 0.18
AUGGAGCAAUAUUACGAUAA | -2.21 ± 0.26 | 
AUGGAGCAAUAUUACGCAGU | -3.57 ± 0.37 | -3.17 ± 0.37
AUGGAGCAAUAUUACGCCGG | -2.78 ± 0.46 | 
AUGGAGCAAUAUUACGCUUA | -2.53 ± 0.33 | -0.194 ± 0.21

Sequence | self-splicing fitness (ln) (30 °C) | self-splicing fitness (ln) (37 °C)
AUGGAGCAAUAUUACGGACU | -1.2 ± 0.18 | -0.626 ± 0.23
AUGGAGCAAUAUUACGGCUC | -2.53 ± 0.45 | 
AUGGAGCAAUAUUACGGGUG | -3.75 ± 0.39 | -2.18 ± 0.22
AUGGAGCAAUAUUACGGUAA |  | -1.08 ± 0.16
AUGGAGCAAUAUUACGGUAU | -3.49 ± 0.16 | -1.32 ± 0.1
AUGGAGCAAUAUUACGGUUU | -2.56 ± 0.26 | -2.26 ± 0.21
AUGGAGCAAUAUUACGUACG | -3.38 ± 0.47 | -2.58 ± 0.36
AUGGAGCAAUAUUACGUAGG | -3.11 ± 0.17 | -2.76 ± 0.23
AUGGAGCAAUAUUACGUAUC | -3.83 ± 0.47 | -1.67 ± 0.24
AUGGAGCAAUAUUACGUAUG | -4.28 ± 0.46 | -3.19 ± 0.37
AUGGAGCAAUAUUACGUCUU | -2.52 ± 0.16 | -1.81 ± 0.21
AUGGAGCAAUAUUACGUGUA | -3.43 ± 0.26 | -3.04 ± 0.23
AUGUAGCAAUAUUACGACUG | -0.943 ± 0.1 | -0.461 ± 0.1
AUGUAGCAAUAUUACGAGCC |  | -1.05 ± 0.49
AUGUAGCAAUAUUACGAUAU | -0.909 ± 0.11 | 0.222 ± 0.14
AUGUAGCAAUAUUACGAUCG | -2.2 ± 0.15 | -1.12 ± 0.2
AUGUAGCAAUAUUACGCUUG | -1.06 ± 0.14 | -0.51 ± 0.15
AUGUAGCAAUAUUACGGAAG |  | -2.01 ± 0.31
AUGUAGCAAUAUUACGGCGU | -1.14 ± 0.11 | -0.716 ± 0.094
AUGUAGCAAUAUUACGGUAA | -2.15 ± 0.23 | -1.36 ± 0.17
AUGUAGCAAUAUUACGGUGA | -1.57 ± 0.13 | -1.52 ± 0.16
AUGUAGCAAUAUUACGGUGU | -3.04 ± 0.16 | -0.843 ± 0.1
AUGUAGCAAUAUUACGGUUA | -0.747 ± 0.17 | -0.518 ± 0.14
AUGUAGCAAUAUUACGGUUC | -1.72 ± 0.099 | -1.29 ± 0.12
AUGUAGCAAUAUUACGUAUA | -1.99 ± 0.2 | -1.58 ± 0.21

Sequence | self-splicing fitness (ln) (30 °C) | self-splicing fitness (ln) (37 °C)
AUGUAGCAAUAUUACGUCCC | -1.73 ± 0.17 | -1.02 ± 0.27
AUGUAGCAAUAUUACGUCUG | -1.94 ± 0.19 | -2.83 ± 0.26
AUGUAGCAAUAUUACGUCUU | -1.62 ± 0.13 | -0.0792 ± 0.13
AUGUAGCAAUAUUACGUUCC | -1.92 ± 0.12 | -0.942 ± 0.17
AUUAAGCAAUAUUACGAAUU | -2.27 ± 0.16 | -1.46 ± 0.21
AUUAAGCAAUAUUACGACGA | -0.668 ± 0.11 | 0.398 ± 0.13
AUUAAGCAAUAUUACGAGCA | -0.83 ± 0.15 | -0.726 ± 0.18
AUUAAGCAAUAUUACGAGGC | -3.18 ± 0.39 | -1.99 ± 0.34
AUUAAGCAAUAUUACGAGUC | -3.25 ± 0.15 | -3.29 ± 0.21
AUUAAGCAAUAUUACGCAGA | -2.88 ± 0.27 | -1.36 ± 0.2
AUUAAGCAAUAUUACGCAUG | -1.09 ± 0.08 | -0.301 ± 0.11
AUUAAGCAAUAUUACGGACA | -0.398 ± 0.22 | -0.339 ± 0.2
AUUAAGCAAUAUUACGGCAU | -0.722 ± 0.076 | -0.458 ± 0.094
AUUAAGCAAUAUUACGGCGU | -0.179 ± 0.073 | 0.712 ± 0.097
AUUAAGCAAUAUUACGGUGU | -2.11 ± 0.088 | -0.653 ± 0.11
AUUAAGCAAUAUUACGUCCG | -1.47 ± 0.13 | -0.734 ± 0.17
AUUAAGCAAUAUUACGUCUC | -2.06 ± 0.12 | -1.4 ± 0.19
AUUAAGCAAUAUUACGUGCC | -0.626 ± 0.096 | -1.07 ± 0.14
AUUCAGCAAUAUUACGACAC | -1.45 ± 0.14 | 0.224 ± 0.17
AUUCAGCAAUAUUACGAGCC | -2.87 ± 0.47 | -1.67 ± 0.45
AUUCAGCAAUAUUACGCAGU | -2.18 ± 0.17 | 0.359 ± 0.15
AUUCAGCAAUAUUACGCCGG | -1.07 ± 0.13 | -0.848 ± 0.19
AUUCAGCAAUAUUACGCCUA | -0.46 ± 0.12 | -0.501 ± 0.13

Reference: the supplement of paper PMC7877785
